The values that follow come from the DeepSol protein solubility set.

This data set is described as follows: soluble on expression in E. coli; label from the status in PepcDB or PDB records.
Consider “MTLDDSSLQKFGFIKRETLGSINIDPLQTGGLLTGAAKQALVEWGDGYSVCDFCGGVLDLVKKPPIHDFVHKALPEFLGCDEARVTNGARESKFAVMHSMGKPGDWVVLDGLAHYSSYVAAERAGLNIEVVPHAGSPEYHLDPGRYGKAIEEVTKENGKPPVLALVTYPDGSYGNIPDAAKIASVCHEYDVPLLLNGAYSVGRMPVSAKEIGADFIVGSGHKSMAASGPVGVLGVSEEYAPVVFRKSVHNKVKEIELLGCTARGATVMTLMASFPEVVKRTRNWDQEVENARWFSSRLEGMGFIQRGQKPHSHDLMFFEAPGFYEISQKVKNGRYFLYRELKERNIHGIKSGLTKYFKLSTFGLGKEKLGTVADAFEDILKKYENI”, for which the “soluble on expression in E. coli” value was “not soluble”.

In the case of “MYHVFFNRRPTRPRLPRALYEQLAALPLNTEVNVHTTNETHYNALFLGFEPRTNNVSLLVDRFYKDGGRSLAIDATTITAIDLPVSMRPASSADSDDEEE”, the “soluble on expression in E. coli” value is “not soluble”.

For the sequence “VTNSTDGRADGRLRVVVLGSTGSIGTQALQVIADNPDRFEVVGLAAGGAHLDTLLRQRAQTGVTNIAVADEHAAQRVGDIPYHGSDAATRLVEQTEADVVLNALVGALGLRPTLAALKTGARLALANKESLVAGGSLVLRAARPGQIVPVDSEHSALAQCLRGGTPDEVAKLVLTASGGPFRGWSAADLEHVTPEQAGAHPTWSMGPMNTLNSASLVNKGLEVIETHLLFGIPYDRIDVVVHPQSIIHSMVTFIDGSTIAQASPPDMKLPISLALGWPRRVSGAAAACDFHTASSWEFEPLDTDVFPAVELARQAGVAGGCMTAVYNAANEEAAAAFLAGRIGFPAIVGIIADVLHAADQWAVEPATVDDVLDAQRWARERAQRAVSGMASVAIASTAKPGAAGRHASTLERS”, the “soluble on expression in E. coli” value is reported as “soluble”.

Consider “GLQTYEYGLKPQDGFEVITHFEFTSQHLDILNRLFTPLIGVESIGLYHFMSQFIDESQQLGLTHYIFMNELKINLLDFREQMDNLEAIGLIKTFVRHEEKYSHFVYELIQPPTAYQFFNDPMLSVFLFSEVDKKRYQALKSYFEKDEKDLSKYQQTTRKFTEVFNVPKKVNVSDQINLKQIKHYDGIDLSNETFDFEMLRQMLNHHFISNEIIDKEAKNLIIQLATLYGITEDGMKNVILSSITSAQQLSFEEMRKKARTYYLIEHDNQLPKLEHQTNKINDEKKDRQAEDTTNDWLQLLDETSPIDMLASWSDSEPTQSQKSMIEELINREKMNFGVINILLQFVMLKEDMKLPKSYIFEIASNWKKIGISNAKQAYEYALQVNQPKNYETHSNDKRQNNRGRQNQFLSKEKTPKWLQNRDDQEENKEINDDTLEEDRQAFLEKLNQKWKEEDN”, for which the “soluble on expression in E. coli” value is recorded as “not soluble”.

On to “MTLVSQIEAILFVVGEEGIGLEELAYLLEKSTAKTYEELTKLKEHYASDNKSALNILEVGNHFVLTTKKKYASLLKKYAQSPMSNALSQAALETLSIIAYKQPISRIEIDEIRGVQTSGSIQKLVARQLIEEKGRVDGPGRAILYGTTKYFMDYFGLKSLDELPDIQQMEDELEEELPMDLFFDRYQETNPMSETTEGEEA”, for which the “soluble on expression in E. coli” value is given as “not soluble”.

Consider “MNQRKLDHEVKTLQVQAAQFAKQTGQWIGMVENFNQALKEIGDVENWARSIELDMRTIATALEYVYKGQLQSAPS”, for which the “soluble on expression in E. coli” value is listed as “soluble”.

As for “MAHHHHHHMLMHSSTLGSVTYTGMKRRSNAASFSTYLRYSSKVVAPIVRSSPRANMGFKRFAASIAPSDLPAPSTTCISSMKRMMGVGLSRTSFKTLFRRSSNSPRYFAPAIRAPRSREKMREEERVSGTSPRTICCAMPSTMDVLPTPGSPIKTGLFFVRRDRTRMVRNTSSARPISGSSLPSSACRHMSIAYLDNAS”, the “soluble on expression in E. coli” value is “not soluble”.

Regarding “MGHHHHHHSHMAAEPVEDNCINFVAMKFIDNTLYFIAEDDENLESDYFGKLESKLSVIRNLNNQVLFIDQGNRPLFEDMTDSDCRDNAPRTIFIISMYKDSQPRGMAVTISVKCEKISTLSCENKIISFKEVNPPDNIKDTKSDIIFFQRSVPGHDNKMQFESSSYEGYFLTCEKERDLFKLILKKEDELGDRSIMFTVQNED”, the “soluble on expression in E. coli” value is reported as “soluble”.

On to “MSLKNIFSVLEERVERTPDDNLVEYKNAQGEWAAFTAAEFKNKVVALAKGLIARGVMPGDSVSIIAHTCWQWTALDVAIMSIGALTVPVYETNSPAQVKMIFNDANVKMAFAEDDFQRDKIESVRDQCPDLGDVYVIGLGAIDTIIEYGRAVSDAEFLEREQAVKGSDLATIVYTSGSTGTPKGVELTHANFVFITYSGVNSMPDIAMKPNRRLLLFLPLAHVFARYMQFFCFAGNVSLGLSSNLKTILADFKAFKPTFILAVPRIFEKIYNAASQKAGAGFKGRVFADATQTACDWSHAQQSGGSIPLALNAKHALYNKLVYSSIMEVFGGHVEYAVSGGAPLDSSIAHFFNGVGLSLLEGYGMTETCAPSSVNPTEGYKIGTIGLPLQGVTMGVDEEGELCIKSPAVCAGYHNNPDVTKQQIVDGWLHTGDLGSIDDDGFVSIVGRKKDLIITAGGKNVSPCEMEASIMTSPVVSQCVMIGDRKPFIAAIISLDLAETNLWLESKGAEQVADLDEASKNPIVRAEVERAVNKANELASRAESIRKFEIVPDEFTEENGLVTPSMKARRQAVVEHYRTLIDKEGHHHHHH”, for which the “soluble on expression in E. coli” value is “not soluble”.

Regarding “MGSDKIHHHHHHMPRTILKDEHWTRLKPILLELNIYDKGNLRNTVEGVLYRMRVGCPWRDLPEHFGKPNTVYKAYQRWFRSNKLIALFALLIKDSDCEWVFIDGTHIKAHQHSSIGHENMQGISKSVAGRATKIHLAVDAHGNPITFILSDGTTHDVKVAPDLIDKDLSDTDILCADKGYDSDALRTHIKQAGCFNNIPRRRNTKSTNNHMDWHLYKTRHLVENAFAKLKHYRAVATRFDKLKQSYENTVALACAYLWLKL”, the “soluble on expression in E. coli” value was “not soluble”.

“MLRSFTIRTAKRDEMIDITSFVEETVRQANVTEGIAVVYCPHTTAGITINENADPDVKRDMMRRFDETYPWEHPLDRHMEGNTAAHMKASTVGASQHVIIHEGRLLLGRWQGVYFCEYDGPRHRTFYVKVIGG”: the “soluble on expression in E. coli” value is on record as “not soluble”.

Turning to “MLGRGEGMRLEEARIAVDEALSAYRRCVEAEVEEYGPEYERVTFMEYEAPAPDPCAEAFLRLVEAVRAYEAAGGSREDLDLGRERKRVYEALDKG”, the “soluble on expression in E. coli” value is given as “soluble”.

Regarding “MSLIDRFGRPLEDLRITLTHACNFECFFCHMEGEEGDNYLLSKEDILLVAKVARKFGINSVKLTGGEPTLRRDLVEIVRGLKQLGYEDVSMTTNGFLLKDLAHKLKLAGLDRINISLHAVSRDTFKKITGVDAFDRVIEGIKSAIDVGLVPVKLNFVVNRRNREEAFKFIELSQNLGVNEIHLIELHPVGLGKLAFKEHDDLREIEEYIEKISIKKLIRKKHFRPRYVLPSGLIVEVVKPYANPIFCAGCNRIRLSVDGKLKTCLYREDNVIDVLDILKGEYSEDVKEELLGRAFMIAIAIREPNFKYKIEGHHHHHH”, the “soluble on expression in E. coli” value is on record as “soluble”.

Turning to “STSTFQTRRRRLKKVEEEENAATLQLGQEFQLKQINHQGEEEELIALNLSEARLVIKEALVERRRAFKRSQKKTREKELESIDVLLEQTTGGNNKDLKNTMQYLTNFSRFRDQETVGAVIQLLKSTGLHPFEVAQLGSLACDTADEAKTLIPSLNNKISDDELERILKELSNLETLY”, the “soluble on expression in E. coli” value is “soluble”.

Take “MAHHHHHHMMSADPNSFEAIRPKLTAQTLQDIEGLDPQKYGFGREECCGPIPTKIIGSMSLREHIFLNTRMPAREWDKRTENVPGFKELSQRVKHALPDASFTVSHLDQDTEDSILHCKVDDDKKAVIITQYSSVSEPYELPWEVKGTLAVDRSGEYFIFVCSHFTRDARCGYCGSVLIDLFRHALLEKMGAGGTARVTVCSCSHVGGHVYAGNVIIYSRHGGICYGLFKPEDVLPVVDAIAEDKGAIPESLRNRIRGQMGSNAS”: the “soluble on expression in E. coli” value is given as “soluble”.

As to “GFFDLRNELPMNCRARRKVDLSDGALKDIARIDAIWSEQMAKFPDAFLFGEWSIADAMYAPVALRFETYGIELSQGAKAYQQKVLASHAVQKWLAEASQETDIVEEDEAGVEV”, the “soluble on expression in E. coli” value is given as “not soluble”.

For the sequence “MSANDFKPETWTSSANEALRVSIVGENAVQFSPLFTYPIYGDSEKIYGYKDLIIHLAFDSVTFKPYVNVKYSAKLGDDNIVDVEKKLLSFLPKDDVIVRDEAKWVDCFAEERKTHNLSDVFEKVSEYSLNGEEFVVYKSSLVDDFARRMHRRVQIFSLLFIEAANYIDETDPSWQIYWLLNKKTKELIGFVTTYKYWHYLGAKSFDEDIDKKFRAKISQFLIFPPYQNKGHGSCLYEAIIQSWLEDKSITEITVEDPNEAFDDLRDRNDIQRLRKLGYDAVFQKHSDLSDEFLESSRKSLKLEERQFNRLVEMLLLLNNS”, the “soluble on expression in E. coli” value is reported as “soluble”.

Consider “MSIIAINENGFLDKIKGRNPLFTCVISSIETTLSIPISGVHRDVIKYTPSADVELVFYGKSLTLKTPPIDATGSPTPATITRACVELKNIKNLHIDAGAFVKPKIPFIEIDEKPTGRIEEGKAMNNSKELYMKGYLLGKNLDAELLIVGESVPGGTTTALGVLLGLGYDAEGKVSSGSINNPHELKIKVVREGLKKAGINEKSSVFDVLNAVGDKMMPVVAGLAISFAERNKPVILAGGTQMSAVLAVIKEINKKVLDKNLIAIGTTEFVLNDKKGDLKGIVEQIGNVPVLASKFYFEKAKIEGLKNYCKGSVKEGVGAGGIAVYSIVNDLEPTKIREFIENKFYEWYKE”, for which the “soluble on expression in E. coli” value was “soluble”.

“MGSDKIHHHHHHLLDYAGAIEEFSHALQLTPYFAEAYLQRGLAYYDSGAILKAVSDYTEALKLNPESVEAYYCRGLARVALKNLPGALEDVERAIRLNLNYAAAYNLRGMVRRKQGYVQDAIANFKKAAQLYLEQQDKENCRLCLERIKQLQPQELPVLQQSRSPNAPILSTNDYFTQLLEKAEKGDTQEALADLNWVLKADSQDAQAYCCRGVVRCKMGDYREAIADFNQALRLNFQDAIVYRNRGKARSILGDHQGAIADLNQALQMQPQDALVYIARGNAYRSTGNYLGAIQDYTQALQINPDDAQAYYNRGIAYTCLEEMQNAVEDYQRAASIFCEQEDWGNYQQVLSSLEKIQKFSPQSKKQKYNLLHQRLLQMVGGYWEIAERLIQQKQDYHPGMSDEWYLQKVIDDLERDRGR”: the “soluble on expression in E. coli” value is on record as “not soluble”.

Regarding “MGSDKIHHHHHHMTTLALTGDSILQRRLLSTSDPVIKPLFDLIRGCDAAFTNLEVLPNDYRGDPAFDSGGSHFGAPSWVLDDLVEAGFGMFSTATNHTLDYSISGLEYGLDQLDKRGLCHAGAGRHLEEARRAAYLTTPNAAIGMVACGSTYTKGQEAARQTAAMQGRPGLNPLWPDSTYEVTAEQMAVVKEMAEGLGLEKFRQIRISTGFAFEAPEGIFPFNGMNFRVGEQTRHVRHPNPKDLAAIIRWVEEAKLASDIALVSIHAHEHADEKDQPADFIVEFAHAVIDAGADLVVGHGPHLLRGMEIYKGKPIFYSLGNFIGQNEMVRQLPGESYDRFHVDDRLTPTQLYKQRTLDDQKGFPSDERYWQTVVPICHFEGDGLVDVEIHPVSLGLGEQRHRRGRPRLAHGAEAESILNRFSSLSYEFGSTLEVGDTCANAVL”, the “soluble on expression in E. coli” value is on record as “not soluble”.

With “MGSDKIHHHHHHMKTIKGPAIFLAQFMSDVAPFNNLKNICDWAASLGYKGVQIPSWDVRCIDLQKAAESKTYCDEIKAVVHAAGLEITELTSHLQGQLVASHAAYDAAFDVFAPAAIHNNPKARAEWATQQLMYAAKASQNLGLTAHATFSGALLWHTMYPWPQRKAGSVEEGFTELAKRWLPILNAFDQAGVDLCYEIHPGEDLHDGITFERFLKATDNHSRAHILYDPSHFVLQQLNYLDYIDIYHEHIKMFHVKDAEFNPSGRAGVYGGYQDWIDRPGRFRSLGDGQVNFKAIFSKLTQYDFPGWAVLEWECCLKHPEDGAREGAAFIKNHIIRVADKAFDDFAG”, the “soluble on expression in E. coli” value was “not soluble”.
